Data from patent US11473073B2, “Aminopeptidases for protein hydrolyzates” (DUPONT NUTRITION BIOSCIENCES APS, priority 2015, dated 2022).

Key:
Type in all cases: biochemical
[1] = molecular target: T1, Neosartorya fischeri NRRL 181 PepN 2 (aminopeptidase type 2) TRI031, SEQ ID NO: 1 (mature SEQ ID NO: 18) (Aspergillus fischeri, UniProt A1DJ89); assay: Activity on Glu-pNA and Gln-pNA substrates; settings: 20 mM CPB-Buffer pH 9.0, 45° C., 405 nm
T1 construct: MEROPS M28.008
Description: (§1) H-Glu-Nitroanilid (pNA) and H-Gln-Nitroanilid (pNA) were used as substrates and the release of p-Nitroanilid (pNA) was measured by absorbance at 405 nm. As buffer 20 mM CPB-Buffer (20 mM Citric acid, 20 mM Na-phosphate, 20 mM Boric acid) pH 9.0 was used. 10 mg H-Glu-pNA and H-Gln-pNA (from BACHEM or Schafer N; Copenhagen, Denmark) were dissolved in 1 ml of DMSO (Dimethyl Sulphoxide from SIGMA; cat # D2650).
(§2) For running the assay 80 μL buffer, 10 μL H-Glu-pNA or H-Gln-pNA substrate and 10 uL appropriately diluted PepN 2 was incubated in Costar assay plate 9017 (Corning Inc.) at 45° C. and measured at 405 nm every 30 sec for 30 min in a VERSAMAX® microplate reader (Molecular Devices) running with SoftMaxPro 5.4.1 software. Activity was determined as the maximal slope of the linear part of the curve determined over 10 time points.

[2] = molecular target: T2, Aspergillus clavatus NRRL 1 PepN 2 (aminopeptidase type 2) TRI035, SEQ ID NO: 5 (mature SEQ ID NO: 22) (Aspergillus clavatus, UniProt A1CCU6); assay: Activity on Glu-pNA and Gln-pNA substrates; settings: 20 mM CPB-Buffer pH 9.0, 45° C., 405 nm
T2 construct: MEROPS M28.008
Description: as §1, §2

[3] = molecular target: T3, PepN 1 L. helveticus (Lactobacillus helveticus ATCC 12046), purified (Lactobacillus helveticus, UniProt Q10730); assay: Activity on Glu-pNA and Gln-pNA substrates; settings: 20 mM CPB-Buffer pH 9.0, 45° C., 405 nm
T3 construct: made in house
T3 sequence (Q10730 1-844): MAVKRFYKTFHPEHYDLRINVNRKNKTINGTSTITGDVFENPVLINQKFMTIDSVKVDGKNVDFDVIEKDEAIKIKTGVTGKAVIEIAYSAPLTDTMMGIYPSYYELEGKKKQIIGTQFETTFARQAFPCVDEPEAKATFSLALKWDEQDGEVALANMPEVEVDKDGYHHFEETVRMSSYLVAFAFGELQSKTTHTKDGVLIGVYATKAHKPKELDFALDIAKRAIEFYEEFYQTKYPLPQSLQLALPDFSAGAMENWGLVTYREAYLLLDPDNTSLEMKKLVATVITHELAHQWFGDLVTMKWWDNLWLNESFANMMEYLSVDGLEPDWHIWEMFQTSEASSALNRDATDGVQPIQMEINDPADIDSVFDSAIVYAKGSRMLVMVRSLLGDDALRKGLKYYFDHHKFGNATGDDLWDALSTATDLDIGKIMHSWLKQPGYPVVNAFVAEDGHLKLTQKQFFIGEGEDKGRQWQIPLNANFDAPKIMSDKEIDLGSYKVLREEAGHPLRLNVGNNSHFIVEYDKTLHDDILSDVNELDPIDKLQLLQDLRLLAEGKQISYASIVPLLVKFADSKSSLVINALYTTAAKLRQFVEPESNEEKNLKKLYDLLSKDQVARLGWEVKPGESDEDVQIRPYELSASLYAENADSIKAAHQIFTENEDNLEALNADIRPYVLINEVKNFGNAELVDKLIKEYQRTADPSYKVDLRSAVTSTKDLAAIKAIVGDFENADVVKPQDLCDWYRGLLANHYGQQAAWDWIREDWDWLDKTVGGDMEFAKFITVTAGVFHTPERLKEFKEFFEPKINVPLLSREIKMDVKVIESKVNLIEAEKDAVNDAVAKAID

[4] = system: PepN 1 A. sojae (COROLASE LAP), non-purified; assay: Activity on Glu-pNA and Gln-pNA substrates; settings: 20 mM CPB-Buffer pH 9.0, 45° C., 405 nm
[5] = system: whey protein isolate (WPI); assay: Degree of hydrolysis of WPI with endopeptidases plus PepN; settings: 50° C., 18 hr
Description: Enzyme activities of PepN 1 Lactobacillus helveticus ATCC® 12046, PepN 1 Aspergillus oryzae and from PepN 2 from Aspergillus clavatus (TRI035) were determined according to Stressler, Eisele et al. (2013, infra). PepN 1 from L. helveticus was expressed and purified as described by Stressler, Eisele et al. (2013, infra).
The PepN 1 and 2 aminopeptidases were standardized to the activity range of 2.5-200 nkat*mL^−1. For protein hydrolyses, 1% (w/wWPI) FOODPRO® Alkaline Protease (DuPont, Brabrand, Denmark) and 1% (w/wWPI) FOODPRO® PNL (DuPont, Brabrand, Denmark) were added to the whey protein isolate suspension (WPI; LACPRODAN® 9224, Arla Ingredients, Viby, Denmark) with an initial pH of 7.0. Following the endopeptidases addition, the WPI was mixed and 200 μL were transferred to each well of a 96-well microtiter plate. The hydrolysis was conducted at 50° C. without pH control and terminated after 18 hr by addition of 20 μL of 2 M TCA. Prior to the determination of the DH (Nielsen, Petersen et al., 2001, infra), all samples were filtered 0.22 μm.

[6] = system: peptide TPAAAR (peptide library XPAAAR); assay: Hydrolysis of peptide with proline in position 2, LC-MS; settings: within 12 hr; peptide library 1 mg/mL, aminopeptidase 1 ug/mL, 55° C.; FIG. 10
Description: The peptide library XPAAAR (1 mg/mL) (SEQ ID NO:133) was incubated with 1 ug/mL of the aminopeptidase in 3×20 mM CPB-Buffer (20 mM Citric acid, 20 mM Phosphate, 20 mM Boric acid) at 55° C. 50 μL aliquots were stopped with 50 ul 5% TFA at the indicated time points and subjected to LC-MS analysis.
Capillary LC-MS/MS analyses were performed using an Agilent 1100 LC system (Agilent Technologies) interfaced to a LTQ Orbitrap Classic hybrid mass spectrometer (Thermo Scientific, Bremen, Germany). Samples were loaded onto a 15 cm Phenomenex Jupiter 4μ Proteo 90A, C4 analytical column. Separation was performed at a flow rate of 16 μL/min using a 10 min gradient of 0-40% Solvent B H2O/CH3CN/HCOOH (50/950/0.65 v/v/v) into the IONMAX® ion source (Thermo Scientific, San Jose). […] The peptide masses were measured by the Orbitrap (MS scans were obtained with a resolution of 60 000 at m/z 400), and up to 2 of the most intense peptide m/z were selected and subjected to fragmentation using CID in the linear ion trap (LTQ). […]
Label free quantification: The RAW files were accessed with the program Skyline 2.6.0.7176 (MacLean, B., et al., supra) which uses the MS1 intensities to build chromatograms (Schilling, B., et al., supra). […] Peptide sequences of the substrate as well as cleavage products were typed into Skyline and intensities were calculated in each sample. […]

T2 sequence (A1CCU6 entry or part of it): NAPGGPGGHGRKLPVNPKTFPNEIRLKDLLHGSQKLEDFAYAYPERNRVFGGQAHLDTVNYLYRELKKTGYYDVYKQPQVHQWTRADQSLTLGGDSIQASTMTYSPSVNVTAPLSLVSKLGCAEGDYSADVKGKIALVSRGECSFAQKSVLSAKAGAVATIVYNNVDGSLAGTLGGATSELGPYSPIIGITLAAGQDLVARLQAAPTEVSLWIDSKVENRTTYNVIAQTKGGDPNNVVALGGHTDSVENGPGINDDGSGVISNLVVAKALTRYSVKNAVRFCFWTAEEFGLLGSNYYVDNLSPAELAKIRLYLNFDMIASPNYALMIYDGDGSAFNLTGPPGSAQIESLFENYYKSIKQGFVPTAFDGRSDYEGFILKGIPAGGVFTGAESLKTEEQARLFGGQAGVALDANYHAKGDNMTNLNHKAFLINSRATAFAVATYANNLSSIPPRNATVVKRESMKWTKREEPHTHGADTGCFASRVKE
T1 sequence (A1DJ89 entry or part of it): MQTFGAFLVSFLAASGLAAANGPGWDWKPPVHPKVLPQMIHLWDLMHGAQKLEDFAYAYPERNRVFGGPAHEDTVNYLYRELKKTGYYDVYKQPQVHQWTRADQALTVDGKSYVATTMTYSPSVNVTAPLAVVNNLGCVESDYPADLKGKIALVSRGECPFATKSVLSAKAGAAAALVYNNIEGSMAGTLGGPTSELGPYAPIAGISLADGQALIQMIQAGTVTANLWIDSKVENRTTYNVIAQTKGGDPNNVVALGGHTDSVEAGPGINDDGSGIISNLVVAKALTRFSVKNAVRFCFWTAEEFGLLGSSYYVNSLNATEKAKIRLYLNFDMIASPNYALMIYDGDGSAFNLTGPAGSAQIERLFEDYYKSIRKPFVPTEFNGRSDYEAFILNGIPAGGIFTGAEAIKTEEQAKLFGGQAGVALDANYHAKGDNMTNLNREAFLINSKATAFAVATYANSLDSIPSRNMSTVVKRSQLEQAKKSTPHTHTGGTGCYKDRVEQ

In the case of `NC(=O)CC[C@H](N)C(=O)Nc1ccc([N+](=O)[O-])cc1` [Gln-pNA, H-Gln-Nitroanilid], the “Vmax (Gln-pNA)” value [1] is reported as 75.9 mU/min, the “Vmax (Gln-pNA)” value [2] is reported as 98.7 mU/min and the “Vmax (Gln-pNA)” value [3] is reported as 0 mU/min. For the same molecule, the “Vmax (Gln-pNA)” value [4] was 0 mU/min.

`N[C@@H](CCC(=O)O)C(=O)Nc1ccc([N+](=O)[O-])cc1` [Glu-pNA, H-Glu-Nitroanilid] was tested, and the “Vmax (Glu-pNA)” value [1] was 50.8 mU/min, the “Vmax (Glu-pNA)” value [2] was 20.1 mU/min and the “Vmax (Glu-pNA)” value [3] was 0.02 mU/min. For the same molecule, the “Vmax (Glu-pNA)” value [4] was 0 mU/min.

B1: PepN 1: L. helveticus: PepN 1 from Lactobacillus helveticus ATCC 12046, expressed and purified as described by Stressler, Eisele et al. (2013) (protein, UniProt Q10730 1-844, looked up)
Aminopeptidase N: T3 sequence (Q10730 1-844)
With B1 the Degree of hydrolysis ([5]; PepN dosage 2.5 nkat/mL in stock solution) was 18%, the Degree of hydrolysis ([5]; PepN dosage 5 nkat/mL in stock solution) was 18% and the Degree of hydrolysis ([5]; PepN dosage 10 nkat/mL in stock solution) was 20%. For the same molecule, the Degree of hydrolysis ([5]; PepN dosage 25 nkat/mL in stock solution) was 23%, the Degree of hydrolysis ([5]; PepN dosage 50 nkat/mL in stock solution) was 23% and the Degree of hydrolysis ([5]; PepN dosage 75 nkat/mL in stock solution) was 24%. For the same molecule, the Degree of hydrolysis ([5]; PepN dosage 100 nkat/mL in stock solution) was 28% and the Degree of hydrolysis ([5]; PepN dosage 200 nkat/mL in stock solution) was 27%.

B2: TRI063 (A. oryzae): leucine aminopeptidase 2 from Aspergillus oryzae RIB40 (NCBI Reference Sequence: XP_001819545.1) (protein, listed as Aspergillus oryzae)
chain: MRSLLWASLLSGVLAGRALVSPDEFPEDIQLEDLLEGSQQLEDFAYAYPERNRVFGGKAHDDTVNYLYEELKKTGYYDVYKQPQVHLWSNADQTLKVGDEEIEAKTMTYSPSVEVTADVAVVKNLGCSEADYPSDVEGKVALIKRGECPFGDKSVLAAKAKAAASIVYNNVAGSMAGTLGAAQSDKGPYSAIVGISLEDGQKLIKLAEAGSVSVDLWVDSKQENRTTYNVVAQTKGGDPNNVVALGGHTDSVEAGPGINDDGSGIISNLVIAKALTQYSVKNAVRFLFWTAEEFGLLGSNYYVSHLNATELNKIRLYLNFDMIASPNYALMIYDGDGSAFNQSGPAGSAQIEKLFEDYYDSIDLPHIPTQFDGRSDYEAFILNGIPSGGLFTGAEGIMSEENASRWGGQAGVAYDANYHAAGDNMTNLNHEAFLINSKATAFAVATYANDLSSIPKRNTTSSLHRRARTMRPFGKRAPKTHAHVSGSGCWHSQVEA
In the case of B2, the “hydrolysis of TPAAAR” value [6] is reported as “no hydrolysis”.
